The chains are these.
B1: Proteinase K: commercial enzyme reagent from Ambion, sold as RNase-free (protein, UniProt P06873 106-384, looked up)
Proteinase K: AAQTNAPWGLARISSTSPGTSTYYYDESAGQGSCVYVIDTGIEASHPEFEGRAQMVKTYYYSSRDGNGHGTHCAGTVGSRTYGVAKKTQLFGVKVLDDNGSGQYSTIIAGMDFVASDKNNRNCPKGVVASLSLGGGYSSSVNSAAARLQSSGVMVAVAAGNNNADARNYSPASEPSVCTVGASDRYDRRSSFSNYGSVLDIFGPGTSILSTWIGGSTRSISGTSMATPHVAGLAAYLMTLGKTTAASACRYIADTANKGDLSNIPFGTVNLLAYNNYQA
B2: Bam HI: commercial enzyme from New England Biolabs, sold as RNase-free (protein, UniProt P23940 1-213, looked up)
Type II restriction enzyme …: MEVEKEFITDEAKELLSKDKLIQQAYNEVKTSICSPIWPATSKTFTINNTEKNCNGVVPIKELCYTLLEDTYNWYREKPLDILKLEKKKGGPIDVYKEFIENSELKRVGMEFETGNISSAHRSMNKLLLGLKHGEIDLAIILMPIKQLAYYLTDRVTNFEELEPYFELTEGQPFIFIGFNAEAYNSNVPLIPKGSDGMSKRSIKKWKDKVENK
B3: RNase 1: commercial enzyme reagent from Ambion, tested for RNase activity (protein, UniProt P21338 24-268, looked up)
Ribonuclease I: LALQAKQYGDFDRYVLALSWQTGFCQSQHDRNRNERDECRLQTETTNKADFLTVHGLWPGLPKSVAARGVDERRWMRFGCATRPIPNLPEARASRMCSSPETGLSLETAAKLSEVMPGAGGRSCLERYEYAKHGACFGFDPDAYFGTMVRLNQEIKESEAGKFLADNYGKTVSRRDFDAAFAKSWGKENVKAVKLTCQGNPAYLTEIQISIKADAINAPLSANSFLPQPHPGNCGKTFVIDKAGY
B4: RNase A: commercial enzyme reagent from Ambion, tested for RNase activity (protein, UniProt P61823 27-150, looked up)
Ribonuclease pancreatic: KETAAAKFERQHMDSSTSAASSSNYCNQMMKSRNLTKDRCKPVNTFVHESLADVQAVCSQKNVACKNGQTNCYQSYSTMSITDCRETGSSKYPNCAYKTTQANKHIIVACEGNPYVPVHFDASV
B5: RNase T1: commercial enzyme reagent from Ambion, tested for RNase activity (protein, UniProt P00651 27-130, looked up)
Guanyl-specific ribonuclease …: ACDYTCGSNCYSSSDVSTAQAAGYQLHEDGETVGSNSYPHKYNNYEGFDFSVSSPYYEWPILSSGDVYSGGSPGADRVVFNENNQLAGVITHTGASGNNFVECT

Experimental findings from patent US7276337B2, “Compositions and methods for visual ribonuclease detection assays” (Integrated DNA Technologies, Inc., priority 2000, dated 2007) are described below.

The data set relates to Substrate oligonucleotide SEQ ID NO:30. As to the kind of experiment: RNase testing of commercially obtained reagents, visual detection. The data set is classed as biochemical. Set-up: key: +++ = maximum intensity; ++ = moderate intensity; + = faint but above background; − = negative (identical to background). The settings on record: reagent diluted 1:10 with Assay Buffer, 50 pmoles Substrate SEQ ID NO:30, 60 minutes at 37° C., UV. As for the experimental part:
Enzymes were obtained from New England Biolabs (NEB) or Ambion as indicated. Test sample (10 ul) was mixed with 1× buffer (90 ul) for a final volume of 100 ul with 50 pmoles of Substrate SEQ ID NO:30 in 0.5 ml RNase-free microtubes. Assay Mixes were incubated 60 minutes at 37° C. and visually examined under UV excitation for fluorescence emission. After scoring for results, 1 ul (1 ug) of RNase A was added to each tube. The Assay was incubated an additional 5 minutes at 37° C. and re-scored. The addition of RNase A represents a control for the absence of an Assay inhibitor and validates negative results. The “plus RNase A” control was omitted whenever the primary assay was already positive.
Table 9: RNase testing of commercially available reagents. A series of commercially available reagents were diluted 1:10 with Assay Buffer to a final volume of 100 ul. An RNase detection assay was performed using the method of the invention with Substrate oligonucleotide SEQ ID NO:30. Reactions were examined for fluorescence emission by visual inspection using an ultraviolet (UV) light source for excitation. Results were scored as +++, ++, +, or − based on relative signal intensity. As a control, RNase A (1 ug) was added to negative reactions and the Assay was re-scored. ND=not done.
In the case of B1, the “Assay Results (RNase activity in reagent, relative signal intensity)” value is on record as “−”. Turning to B2, the “Assay Results (RNase activity in reagent, relative signal intensity)” value is recorded as “−”.

B3: the “Assay Results (RNase activity in reagent, relative signal intensity)” value is “+++”.

Take B4: the “Assay Results (RNase activity in reagent, relative signal intensity)” value is given as “+++”.

For the molecule B5, the “Assay Results (RNase activity in reagent, relative signal intensity)” value is “+++”.
